According to US20030091584A1:
Changes are numbered by the printed parent chain. “And” between values parts separate entries of the source, which are not always exact repeats. Equal values may be shown once.

What was measured:
[1] = molecular target: RSV F protein (immobilized on the BIAcore sensor chip) (respiratory syncytial virus); assay: BIAcore, immobilized F protein
Bac-F = assay: BIAcore, mAb vs Bac-F (1:1)

Sequence of RSV F protein (immobilized on the BIAcore sensor chip) (respiratory syncytial virus) (P03420 26-524): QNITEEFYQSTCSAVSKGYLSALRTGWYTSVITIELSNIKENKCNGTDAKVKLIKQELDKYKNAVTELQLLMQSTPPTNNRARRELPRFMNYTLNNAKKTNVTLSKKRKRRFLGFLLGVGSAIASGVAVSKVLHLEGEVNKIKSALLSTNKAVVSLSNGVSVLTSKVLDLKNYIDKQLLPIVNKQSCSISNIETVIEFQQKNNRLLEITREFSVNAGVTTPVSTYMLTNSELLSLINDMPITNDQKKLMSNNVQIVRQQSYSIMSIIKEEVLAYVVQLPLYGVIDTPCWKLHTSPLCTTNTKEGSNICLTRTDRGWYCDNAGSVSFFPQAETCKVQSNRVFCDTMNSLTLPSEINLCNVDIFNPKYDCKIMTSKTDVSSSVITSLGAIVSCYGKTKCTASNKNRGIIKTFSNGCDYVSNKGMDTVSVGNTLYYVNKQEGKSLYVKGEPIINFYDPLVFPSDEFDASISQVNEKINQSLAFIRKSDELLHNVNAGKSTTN

B1: AFFF (monoclonal antibody) (antibody, V domains shown)
VH: QVTLRESGPALVKPTQTLTLTCTFSGFSLSTAGMSVGWIRQPPGKALEWLADIWWDDKKDYNPSLKSRLTISKDTSKNQVVLKVTNMDPADTATYYCARSMITNFYFDVWGAGTTVTVSS
VL: DIQMTQSPSTLSASVGDRVTITCSASSSVGYMHWYQQKPGKAPKLLIYDTFKLASGVPSRFSGSGSGTEFTLTISSLQPDDFATYYCFQFSGYPFTFGGGTKLEIK
B1 was tested, and the koff [1] was 0.000274 s⁻¹ and 0.000266 s⁻¹ and 0.000206 s⁻¹ and the kon [1] was 108000 M⁻¹ s⁻¹ and 96000 M⁻¹ s⁻¹ and 124000 M⁻¹ s⁻¹.

B2: A12a6 (monoclonal antibody) (antibody, V domains shown)
VH: B1 VH with D57G, S67D, S100D, T103F, A112Q
VL: B1 VL with S28R, A54S, F90G, L103V
In the case of B2, the Kd (Bac-F) is reported as 0.04 nM, the koff (Bac-F) is reported as 1.65e-05 s⁻¹ and the kon (Bac-F) is reported as 460000 M⁻¹ s⁻¹. For the same binder, the number in parentheses after KD (fold against SYNAGIS = 1) (Bac-F) was 98 fold.

B3: A17d4 (monoclonal antibody) (antibody, V domains shown)
VH: B1 VH with D57G, D60S, S67D, S100D, T103F, A112Q
VL: B1 VL with S24L, A25P, S28R, F51M, K52Y, L53Q
B3 showed a Kd (Bac-F) of 0.09 nM, a koff (Bac-F) of 4.07e-05 s⁻¹ and a kon (Bac-F) of 456000 M⁻¹ s⁻¹. For the same binder, the number in parentheses after KD (fold against SYNAGIS = 1) (Bac-F) was 43 fold.

B4: P12f2 (monoclonal antibody) (antibody, V domains shown)
VH: B1 VH with A32P, D60H, S67D, S100D, T103F
VL: B1 VL with A25L, S28R, K52Y, A54S, F90G, L103V
Binder B4 has a Kd (Bac-F) of 0.31 nM, a koff (Bac-F) of 0.000128 s⁻¹ and a kon (Bac-F) of 407000 M⁻¹ s⁻¹. For the same binder, the number in parentheses after KD (fold against SYNAGIS = 1) (Bac-F) was 13 fold.

B5: A1e9 (monoclonal antibody) (antibody, V domains shown)
VH: B1 VH with A32P, D57G, D60H, S67D, S100D, T103F, F105W, A112Q
VL: B1 VL with A25L, S28R, A54S, F90G, L103V
For B5, the Kd (Bac-F) was 0.33 nM, the koff (Bac-F) was 0.000143 s⁻¹ and the kon (Bac-F) was 433000 M⁻¹ s⁻¹. The number in parentheses after KD (fold against SYNAGIS = 1) (Bac-F) was 12 fold.

B6: AFFF (Fab fragment) (Fab, V domains shown)
VH: B1 VH
VL: B1 VL
In the case of B6, the koff [1] is reported as 0.000245 s⁻¹ and 0.000446 s⁻¹ and 0.000268 s⁻¹ and the kon [1] is reported as 212000 M⁻¹ s⁻¹ and 156000 M⁻¹ s⁻¹ and 186000 M⁻¹ s⁻¹.

B7: P12f4 (monoclonal antibody) (antibody, V domains shown)
VH: B1 VH with A32P, D57G, D60H, S67D, S100D, T103F, A112Q
VL: B1 VL with A25L, S28R, F51R, K52G, A54P, F90G, L103V
With B7 the Kd (Bac-F) was 0.11 nM, the koff (Bac-F) was 5.55e-05 s⁻¹ and the kon (Bac-F) was 495000 M⁻¹ s⁻¹. It also gave a number in parentheses after KD (fold against SYNAGIS = 1) (Bac-F) of 35 fold.

B8: L1-7E5 (Fab fragment) (Fab, V domains shown)
VH: B1 VH with S100D
VL: B1 VL with K52R, F90G
B8 was tested, and the koff [1] was 0.000192 s⁻¹ and 0.000331 s⁻¹ and 0.000229 s⁻¹.

B9: A8c7 (monoclonal antibody) (antibody, V domains shown)
VH: B1 VH with D60S, S67D, S100D, T103F, F105W, A112Q
VL: B1 VL with S28R, F51R, K52Y, L53Q, A54S, F90G
Binder B9 has a Kd (Bac-F) of 0.21 nM, a koff (Bac-F) of 8.75e-05 s⁻¹ and a kon (Bac-F) of 417000 M⁻¹ s⁻¹. For the same binder, the number in parentheses after KD (fold against SYNAGIS = 1) (Bac-F) was 19 fold.

B10: A13c4 (monoclonal antibody) (antibody, V domains shown)
VH: B1 VH with D57G, D60S, S67D, S100D, T103F, A112Q
VL: B1 VL with A25L, S28R, F51M, K52Y, L53Q, A54S, F90G, L103V
With B10 the Kd (Bac-F) was 0.13 nM, the koff (Bac-F) was 3.96e-05 s⁻¹ and the kon (Bac-F) was 300000 M⁻¹ s⁻¹. It also gave a number in parentheses after KD (fold against SYNAGIS = 1) (Bac-F) of 30 fold.

B11: P11d4 (monoclonal antibody) (antibody, V domains shown)
VH: B1 VH with A32P, D57G, D60H, S67D, S100D, T103F, F105W, A112Q
VL: B1 VL with A25P, S28R, F51M, K52R, F90G, L103V
B11 was tested, and the Kd (Bac-F) was 0.62 nM, the koff (Bac-F) was 0.000289 s⁻¹ and the kon (Bac-F) was 466000 M⁻¹ s⁻¹. The number in parentheses after KD (fold against SYNAGIS = 1) (Bac-F) was 6 fold.
